According to IntAct's records for PubMed 17174311:

B1: Serine/threonine-protein kinase PLK4 (Mus musculus), Q64702 (parent)
chain: MAACIGERIEDFKVGNLLGKGSFAGVYRAESIHTGLEVAIKMIDKKAMYKAGMVQRVQNEVKIHCQLKHPSVLELYNYFEDNNYVYLVLEMCHNGEMNRYLKNRMKPFSEREARHFMHQIITGMLYLHSHGILHRDLTLSNILLTRNMNIKIADFGLATQLNMPHEKHYTLCGTPNYISPEIATRSAHGLESDIWSLGCMFYTLLIGRPPFDTDTVKNTLNKVVLADYEMPAFLSREAQDLIHQLLRRNPADRLSLSSVLDHPFMSRNPSPKSKDVGTVEDSMDSGHATLSTTITASSGTSLSGSLLDRRLLVGQPLPNKITVFQKNKNSSDFSSGDGSNFCTQWGNPEQEANSRGRGRVIEDAEERPHSRYLRRAHSSDRASPSNQSRAKTYSVERCHSVEMLSKPRRSLDENQHSSNHHCLGKTPFPFADQTPQMEMVQQWFGNLQMNAHLGETNEHHTVSPNRDFQDYPDLQDTLRNAWTDTRASKNADTSANVHAVKQLSAMKYMSAHHHKPEVMPQEPGLHPHSEQSKNRSMESTLGYQKPTLRSITSPLIAHRLKPIRQKTKKAVVSILDSEEVCVELLRECASEGYVKEVLQISSDGTMITVYYPNDGRGFPLADRPPLPTDNISRYSFDNLPEKYWRKYQYASRFIQLVRSKTPKITYFTRYAKCILMENSPGADFEVWFYDGAKIHKTENLIHIIEKTGISYNLKNENEVTSLKEEVKVYMDHANEGHRICLSLESVISEEEKRSRGSSFFPIIVGRKPGNTSSPKALSAPPVDPSCCKGEQASASRLSVNSAAFPTQSPGLSPSTVTVEGLGHTATATGTGVSSSLPKSAQLLKSVFVKNVGWATQLTSGAVWVQFNDGSQLVVQAGVSSISYTSPDGQTTRYGENEKLPEYIKQKLQCLSSILLMFSNPTPNFQ

Variants of: B1
Settings: with MBP

| Variant | effect of a mutation on the interaction |
| --- | --- |
| D154N | disrupting interaction |

Variants of: B1
Settings: with ccnb3_human CCNB3, Q8WWL7
ccnb3_human CCNB3, Q8WWL7, sequence (Q8WWL7 whole entry): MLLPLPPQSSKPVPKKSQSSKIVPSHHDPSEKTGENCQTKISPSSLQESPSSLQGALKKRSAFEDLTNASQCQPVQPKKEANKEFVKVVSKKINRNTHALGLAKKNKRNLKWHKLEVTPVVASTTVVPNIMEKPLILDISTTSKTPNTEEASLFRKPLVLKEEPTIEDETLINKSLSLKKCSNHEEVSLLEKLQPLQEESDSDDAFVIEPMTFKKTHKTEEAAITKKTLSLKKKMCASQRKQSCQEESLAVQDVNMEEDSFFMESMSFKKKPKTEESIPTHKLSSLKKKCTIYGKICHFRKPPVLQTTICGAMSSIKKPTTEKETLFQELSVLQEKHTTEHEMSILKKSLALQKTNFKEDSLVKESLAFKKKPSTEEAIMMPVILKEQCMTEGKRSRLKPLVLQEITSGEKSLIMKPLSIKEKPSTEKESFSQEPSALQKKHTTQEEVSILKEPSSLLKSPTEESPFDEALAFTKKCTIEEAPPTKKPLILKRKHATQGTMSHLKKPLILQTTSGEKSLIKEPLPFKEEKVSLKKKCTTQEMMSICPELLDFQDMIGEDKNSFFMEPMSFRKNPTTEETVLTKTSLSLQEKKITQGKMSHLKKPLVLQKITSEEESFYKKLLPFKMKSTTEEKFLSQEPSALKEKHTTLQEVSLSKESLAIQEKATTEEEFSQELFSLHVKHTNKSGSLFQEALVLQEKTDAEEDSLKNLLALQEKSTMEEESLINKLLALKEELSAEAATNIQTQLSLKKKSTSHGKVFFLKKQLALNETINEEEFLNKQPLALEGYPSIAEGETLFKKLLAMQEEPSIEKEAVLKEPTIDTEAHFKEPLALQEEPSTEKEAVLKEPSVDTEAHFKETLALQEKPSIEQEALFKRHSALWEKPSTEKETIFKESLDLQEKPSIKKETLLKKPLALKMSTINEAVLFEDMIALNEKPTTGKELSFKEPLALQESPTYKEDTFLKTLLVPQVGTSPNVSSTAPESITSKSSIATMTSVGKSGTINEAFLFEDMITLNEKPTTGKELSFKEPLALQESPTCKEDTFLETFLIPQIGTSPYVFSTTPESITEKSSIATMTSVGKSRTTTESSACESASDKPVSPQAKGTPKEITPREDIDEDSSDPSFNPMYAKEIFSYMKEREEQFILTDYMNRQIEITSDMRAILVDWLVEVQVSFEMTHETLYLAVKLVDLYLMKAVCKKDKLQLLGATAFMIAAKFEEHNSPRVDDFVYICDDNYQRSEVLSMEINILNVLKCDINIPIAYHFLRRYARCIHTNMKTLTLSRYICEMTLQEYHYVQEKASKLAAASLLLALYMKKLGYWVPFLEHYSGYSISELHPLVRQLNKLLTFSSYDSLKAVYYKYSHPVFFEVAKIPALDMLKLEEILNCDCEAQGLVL

| Variant | effect of a mutation on the interaction |
| --- | --- |
| D154N | disrupting interaction |
